Measured values: PMC6620040, “Structure of the DNA-Bound Spacer Capture Complex of a Type II CRISPR-Cas System” (Molecular Cell, 2019)

B1: Cas1 protein of the CRISPR3-Cas system from S. thermophilus DGCC7710, bearing a StrepII tag (natural protein, Streptococcus thermophilus DGCC7710)
chain: MAGWRTVVVNIHSKLSYKNNHLIFRNSYKTEMIHLSEIDILLLETTDIVLTTMLVKRLVDENILVIFCDDKRLPTAFLTPYYARHDSSLQIARQIAWKENVKCEVWTAIIAQKILNQSYYLGECSFFEKSQSIMELYHGLERFDPSNREGHSARIYFNTLFGNDFTRESDNDINAALDYGYTLLLSMFAREVVVCGCMTQIGLKHANQFNQFNLASDIMEPFRPIIDRIVYQNRHNNFVKIKKELFSIFSETYLYNGKEMYLSNIVSDYTKKVIKALNQLGEEIPEFRI
notes: Cas1 of the type II-A CRISPR3-Cas system, Streptococcus thermophilus DGCC7710; cloned into pETDUET-1 (pCas1Strep); Forms dimers with two conformations (Cas1A, Cas1B) in the structures; also called StCas1; Strep-tagged Cas1; source: E. coli BL21 (DE3), co-expressed with the rest of the CRISPR3-Cas locus, in lysate; purified as a complex (Strep-Trap HP, Superdex S200) for cryo-EM; not shown: …
B2: Cas2 protein of the CRISPR3-Cas system from S. thermophilus DGCC7710 (natural protein, Streptococcus thermophilus DGCC7710)
chain: MSYRYMRMILMFDMPTDTAEERKAYRKFRKFLLSEGFIMHQFSVYSKLLLNHTANTAMVGRLKANNPKKGNITILTVTEKQFARMIYLYGDKNTSIANSEERLVFLGDNYCDED
notes: Cas2 of the type II-A CRISPR3-Cas system, Streptococcus thermophilus DGCC7710; expressed from the CRISPR3 locus plasmid; source: E. coli BL21 (DE3), expressed from the CRISPR3 locus plasmid (pCas1- and derivatives), in lysate; purified as a complex (Strep-Trap HP, Superdex S200) for cryo-EM
B3: Csn2 protein of the CRISPR3-Cas system from S. thermophilus DGCC7710 (natural protein, Streptococcus thermophilus DGCC7710)
chain: MKINFSLLDEPMEVNLGTVLVIEDVSVFAQLVKEFYQYDEQSNLTIFDSKIRSIRSSELLLITDILGYDINTSQVLKLLHTDIVSQLNDKPEVRSEIDSLVSLITDIIMAECIENELDIEYDEITLLELIKALGVRIETKSCTVFEKIFEILQIFKYLVKKRILVFVNSLSYFSKDEIYQILEYTKLSQADVLFLEPRQIEGIQQFILDKDYILMPYNN
notes: Csn2 of the type II-A CRISPR3-Cas system, Streptococcus thermophilus DGCC7710; expressed from the CRISPR3 locus plasmid; Tetramer (dimer of dimers, conformations Csn2A and Csn2B) in the structures; one Ca2+ per chain modelled; also called StCsn2; Csn2A; source: E. coli BL21 (DE3), expressed from the CRISPR3 locus plasmid (pCas1- and derivatives), in lysate; purified as a complex (Strep-Trap HP, …)

How the values were obtained:
[1] = target: the molecule itself; assay: cryo-EM structure; Strep-Trap- and SEC-purified Cas9-Cas1-Cas2-Csn2 sample after DNase I treatment and gel filtration (25 mM Tris pH 7.5, 150 mM NaCl, 1 mM TCEP), graphene oxide coated grids; monomer Cas1_(8)-Cas2_(4)-Csn2_(8) at 3.2 Å (D2), dimer Cas1_(24)-Cas2_(12)-Csn2_(16) at 7.2 Å (D2), filament unit at 7.7 Å (D2); duplex DNA in the central channel
[2] = target: B1; assay: pull-down; StrepII-tagged Cas1 co-expressed in E. coli with the CRISPR3-Cas locus (all four proteins; also the variants lacking Cas9, the CRISPR array or tracrRNA); StrepTrap column, then size-exclusion chromatography (Superdex S200), SDS-PAGE; 10 mM Tris-HCl pH 7.5, 300 mM KCl, 1 mM EDTA, 1 mM DTT; conditions: partners not purified

Row | Binder | stoichiometry N [1] | binding result [2]
1 | B1 | 2 | –
2 | B2 | 2 | binds
3 | B3 | 4 | –
